Patent US20240026407A1, “MODIFICATION OF SAPONINS” (GLAXOSMITHKLINE BIOLOGICALS SA, priority 2020, published 2024)

Assays:
Type in all cases: biochemical, Quillaja saponaria
[1] = Experiment 5-3: screening of additional glucosidases for deglycosylation with QS-18 in treated bark extract (80%) at pH 6 and 35 deg C; conditions: TBE 80% (QS-21 approx. 4 g/L), pH 6, 35 deg C; UV HPLC
Procedure: Experiment 5-1 was repeated, replacing CBE with Treated Bark Extract (TBE) at pH 6. TBE was prepared from CBE by PVPP treatment and concentration, to provide TBE with a QS-21 concentration of approximately 4 g/L. TBE was adjusted to pH 6 by dropwise addition of 2M NaOH with stirring.

[2] = Experiment 5-2: screening of additional glucosidases for deglycosylation with QS-18 in crude bark extract (80%) at pH 6 and 35 deg C; conditions: CBE 80%, pH 6, 35 deg C, 18 hours; UV HPLC
Method in brief: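 Deglycosylation of QS-18 was monitored by UV HPLC after MeCN/AcOH quench with hexanophenone. The reaction ran 18 hours at 35 deg C, shaking, combining clarified pH 6 lysate with crude bark extract neutralised to pH 6 by NaOH.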

[3] = Experiment 5-1: screening of additional glucosidases for deglycosylation with purified QS-18 (0.04 mg/ml) at pH 7.5 and 30 deg C; conditions: pH 7.5, 30 degrees C, 18 hours, LCMS/MS
Procedure: The 94 additional genes, together with positive control (DNA encoding SEQ ID No. 262) and negative control, were transformed, expressed, lysed and reacted in the same manner as described above for Experiment 4-1, except the reaction was incubated at 30 degrees C. for 18 hours.
Samples were analysed by LCMS/MS according to the procedure in Experiment 4-1.

B1: 844 (protein, listed as Paenarthrobacter aurescens)
chain: MNPTLSAAVTAPSAGTQDAEAEIRDLAQSLTLEQQVQLLTGADVWSTHAIPEIGLSRVVMSDGPAGVRGEDFDERHDSVSLPSSSALSATWSVETARNYGQVLGQEARRKGVHAVLGPTINLHRSPLGGRHFECMSEDPRLTATMAAGYVAGVQSMGVGATPKHYLANEAETERFTADSVVDERPLRELYLAAFEDAITEARAWLVMSSYNSINGTTASENKLLETPLSTEWGFDGVVVSDWTGVRSIDAANAHQDLEMPGPVGHWGPKLLAAVNEGRVSREAILEKVTRILRLAARVGSLEGFEPAVTHLPTELNGAAVAREVAVRGAVLVRNKGLLPLDAKALGSVAVIGHNADEARTQGGGSATVMPKYTVSPLEGLRKALPEGVKVTYARGAKVAEGIQAFPRTSLHNPVSNVPGIRVTFLAEDGTEISGEDRLASHLIWFGIGIPDGAASIRMEADWTAETAGVHHLGVGTVGRIRFVLDGTEVFNSELEDDTEVLGAALFDPPKTVHAIDTTAGQSIRIEAEYQLPKEQVIPFTAILLGEETVVAEPQAEIDAAVEAARASDVAVVVVGTNAAIESEGFDRKDLDLPGYQNQLVKAVAAANPRTVVVVNSGSPVLMPWLDTVDAVLLGWFGGQEFGSAVADILLGVEEPGGRLPTTWPSALDDVPVLNTTPTDGKVVYSEGIHIGYRAWLKQQAEGGAAPALPFGFGLGYTTFEFGKAHAPQAVTAGKDLVVHVPVKNTGTRTGREVVQVYVERTESAVERPVRWLAGYAGAHLAPAGTESVEIRIPAKAFAHYDGGWQFEQGTFRLLVGRHAADDFQSLDIELR
[1]
  Experiment 5-3 % conv: <0.5%
[2]
  Experiment 5-2 % conv: <0.5%
[3]
  Experiment 5-1 % conv: 43.6%

B2: 882 (protein, listed as Acidipropionibacterium acidipropionici)
chain: MAESPIQSLSMRSLSTEQKAALTSGADFWHTESCAPLGLPAIMLTDGPHGLRKQTGSTDMLGLGSSVPATCFPPAVGLGSSWDVDLIHRVGAALGAEASIEGVAVLLGPAINIKRSPLCGRNFEYISEDPLVAGTLGAAMVEGIQSRAVGACVKHFAANNQETDRMRVSADVDPRALHEIYLRAFEQVVRRAEPWMVMCSYNRINGVPASQDHWLLTDLLRGQWGFDRVVVSDWGAVSDRVASLSAGLDLEMPGTAGRTDAQILAALASGTLDEETLDSAAARVVTLLRRAAVGAGEVSGPLDVDAHHRLAREAAARSIVLLRNEVQRSETTGDEGALLPLRPDARIAVIGAFAEQPRYQGAGSSRINPTRLDTALAEIRALASGEVSYSPGFRLTPESVGPAEELRRDAAEAASQAEVAVVFLGLGDDAESEGFDRTGIDLSADQLALLDDVLAANPNTVVVLSNGAVVALPFADRVPAILEAWLGGQAGGGGVADVLFGRVNPSGRLTETIPKRLADSPAYLDFPGEHGHVRYGEGIFVGYRWYDARELEVAFPFGHGLSYTTFSYGQASAALDEDGNITVRLPVTNTGAVAGREVVQAYVSLPGSAVQRPPRELKGFVVVEAEPGQTVEAEMLIRREDLAYWDLRIDRWRVEAGTYRIDVAASSRDIRSSVEVVVPDGDAPIPLNWDSTLGELMAHPVAGPALAQAMAGALEGFAGAGDLMPAGAMAQMAGSLPLRALLTLGGDAVTPETLNQLIVLANGSPRK
[1]
  Experiment 5-3 % conv: <0.5%
[2]
  Experiment 5-2 % conv: <0.5%
[3]
  Experiment 5-1 % conv: 31.4%

B3: 824 (protein, listed as Pestalotiopsis fici)
chain: MMTTDIEAVLKSLTLEEKISLLAGQNFWETVPVPGKVPHIKTSDGPNGARGADFTGGTRAACFPAASNVAATFDLDIANRIGQALAEETQSKGARCLLAPTTCIHRHPLGGRNFESFSEDPLLSGKLASQVIQGVQSKGVAATIKHFAANEQETERMSVDETISERALREIYLRPFEIAVKEAKPWAVMTAYNCVNGEHCDSNAFNFKVLREEWGWKGLVMSDWGGTNSTAEALNAGLDLEMPGPTNRRKIPDVLAAIKEGKTTERAIDDRARAVLEFIDRLKAFEDPTIPPEQAINKPEHQALIREAGAKGCVLLKNDNGVLPLSKDKVKGKKVAVFGLAKTPLAHGGGSASVNAHYKIAPWDALQEAVGDSAELVYSQGAHTQRILLPIGEDKSAGSIVGLDGKPGFTLQVFDNATQAIEETTHGHPSSSISPLGSKATLYKILEFVGDFTPTESGSHYLGCTGLGLTQVYVNDKLVYDQQKASPDAMGFLFGAISEDEFTYPFTAGNAYRIRVRSLPPIDVPGLEILNGRSGVRLGLQLASEHDADLQGEAVALAKDADYALVFTGHDPQWETEGQDQESFNLPRKGTQDALISAVAKVNPNTVVINSTGVAIALPWLEQVSSLVHAGFPGQECGNSIVDVITGAVNPEGRLPMSFPKRLEDAPAYGNFPGEYVNGQLKVEYKEGVFVGYRHYDRIGRDKVNFAFGHGLSYTTFATDSLRVSRKSETEFSASVNVTNTGKTQGGTLVQLYAGNATTSPEHPIKGLVAFKKIRLEPGQTQTVDLAVAARDLGFFDESRGQWVVPAGQYDFSLGESALDIIQTVKVAVEKELTSAP
[1]
  Experiment 5-3 % conv: <0.5%
[2]
  Experiment 5-2 % conv: <0.5%
[3]
  Experiment 5-1 % conv: 23.5%

B4: 825 (protein, listed as Bifidobacterium bohemicum)
chain: MSEQNSERKATLPQAKDLSVEEQSALTSGTNPWSIGRVEGKGLPNYTITDGPHGLRKARDLDGMDVDAAVPATCFPPAAGMSSSWNPELIKKTGEAMGEECVQEQVAVILGPGVNIKRNPLGGRCFEFWSEDPYLAGHEAIGEVEGIQSKGIGTSLKHFAANNQETDRLRVNARISERAMREIYLPAFEHIIKNAQPWTVMCSYNRINGEYASQNSWLLTDVLRKEWGFKGIVMSDWGAVHDRAAALNAGLNLEMPPTHTDDKIVQAVRDGQVKPEQLEAMSQGMIDLVAKTQPAMEKGAAGYRYDVDEHDEIAREAAREAMVLLKNEDGLLPVKPGTKLAVIGEFARTPRYQGAGSSLINPNKLTSFLDALKDRGVEAEFAPGFTLDGDEQSQELTDEAVNAAESADTVLLFIGLPAEAESEGFDRTTLDIPAKQIEVLKAVSAVNKNVVVILSNGSVVSMPWADQAKSILECWLLGQAGGAATADVVFGDVNPSGKLAQTIVNNLDDDPSMLNWPGEEGHVDYGEGVFVGYRYYDSFHKAVTYPFGYGLSYTTFDISEVNAQKSGPQSVHVTAMVTNTGSMAGAEVVQVYVAPPACRVDRPVHELKAFKKVFLEPGQSQEVSFDLDSRAFAYWSERFEDWKVEGGSYGIEVGDSSRSIAQTVPVQLDDDGKRMKLTKWSTYGEWREDPDGNKILDKVISELEAKYGHAIIPDSQLIIMFLKSAPLGGMSMVLGANEAQDICERALAEYAKIGR
[1]
  Experiment 5-3 % conv: <0.5%
[2]
  Experiment 5-2 % conv: <0.5%
[3]
  Experiment 5-1 % conv: 24.5%

B5: 823 (protein, listed as Streptomyces fulvissimus)
chain: MAAASSTSNSKALRREAVDTALAALGLDDKTRLLAGQDLWSLPALPAIGLRSLVMSDGPIGVRGVRWTAADPSVALPSPTALAATWDPELARRAGRLLAQEARRKGVHVLLAPTVNLHRTPLGGRHFEAYSEDPYLTGEIGTGYVRGVQDGGVATTVKHFVANDAETDRFTVNNTVAPRPLRELYLAPFERIVRNAHPWGIMAAYNQVNGSTMTEHRYLQNAVLRGEWGFDGFIVSDWLAARTTVGAITGGLDAAMPGPRTVYGETLADAVRAGEVDEKIVDLAVRNILLLAARVGALESAPPAVPAAALPATVDGDALAREIARRSFVLVRNEVHDGADALPLAPGTTVALSGALARDARVLGGGSALVFPDHVVSPLDGLTAALPEGALTYAVGADPSDELAIAEAGFDLTAVCRDASGAVLATVPLPSGQIQWIGADLPDGVTHDTLDTVEITGTFTPRASGEHTFGTRGTGSFALTVDDRPLFDGTQDRAPGTDPLGAFFNEPVERGRLPLTEGAPVRVSLSHRPGPGTGHPLKGVAFSLVHLAPLRDPDELIAEAVEAARSADTAIVVVGTTERVESEGFDRTDLKLPGHQDALVHAVAAVNPRTVVVVNSGSPVELPWRNEVAAVLLSWFPGQEAGHALADVLRGQEEPGGRLPTTWPVALADVPVSATTPTNGELPYTEGVFIGYRAWEKAGTTPAYAFGHGLGYTTWEYEDVSATPDSVTVRVRNTGSRPGSDTVQIYLAPAPAPDAPERPARWLAGFARVTAAPGGSVEVTVPVEARAYQVWDEEAYGWKTVPGTYEVQAARSLADVRATTTVDITA
[1]
  Experiment 5-3 % conv: <0.5%
[2]
  Experiment 5-2 % conv: <0.5%
[3]
  Experiment 5-1 % conv: 23.1%

B6: 874 (protein)
chain: MSEQTSSSTYPSVNDLSLEEKASLTSGGDAWHLQPIEERGIPGYMITDGPHGLRKTAGDTGAIDLEHTVPATCFPPAAGMSSTWNPELVEEVGQAMAEECIQEKVAVILGPGVNIKRNPLGGRCFEYWSEDPYLAGHEAVGIVKGVQSKGVGTSLKHFAVNNQETDRLRIDARVSQRALREIYLPAFEHIVKTAQPWTVMCAYNRINGVYAAQNRWLLTDVLRKEWGFKGIVMSDWGADHDRVASLNAGLNLEMPPSFTDDQIVSAARDGRISPKQLDDMAQGMIGLVNKTRQAMSVEDYRFDAQVHDDIARRAAAESMVLLKNDEHILPLSKNARVAVIGEFARTPRYQGGGSSHITPTQLTSLLDALQQRGIEYDFAPGFTLEDGEQEQSLVDEAVNIASKADAVVMCLGLPEYAESEGFDRTSLDIPAKQLELLSKVRESNANVVVLLSNGSVVSLTPWQDQAKAVVETWLLGQSGGGAIADMLFGDVNPSGKLSQTIPLNILDDPSMLNWPGEEGHVDYGEGVFVGYRYYDTYAKEVAYPFGFGLSYSDFSIDNVSVERTGANTACVRATVTNVSQTAGAQTVQIYVAPGRSEVARPVHELKGFAKVFLEAGESKEISIDLDERAFAYWSERFNDWHIEAGTYGIEVATSSRDIVERLDIELEGDGKSLPLNEWSNMSEWRKDPVGGPIVKRMFEEGRDGRIPALPENNLGAELFLDAMPINSMSVLLGKDGKVLTQFLLDEYAKETDGLH
modifications: Bifidobacterium tsurumiense
[1]
  Experiment 5-3 % conv: <0.5%
[2]
  Experiment 5-2 % conv: <0.5%
[3]
  Experiment 5-1 % conv: 29.4%
